# From publication PMC12378399 (Metallomics : integrated biometal science, 2025)
# Like-named read-outs stand apart in the source and are kept apart here.
# How the values were obtained:
# [1] = molecular target: SufS (with SufE) (Escherichia coli, UniProt P77444); conditions: 50 mM MOPS pH 8.0, 150 mM NaCl, 2 mM TCEP, 500 μM L-cysteine, SufE 0.25-3 μM varied (not cysteine)
# [2] = molecular target: BODIPY-labeled SufE C51A/E107C (SufEDM) (E. coli) (UniProt P76194); assay: fluorescence polarisation
# [3] = molecular target: SufS (Escherichia coli) (UniProt P77444); conditions: cited from earlier work
# [4] = molecular target: SufS (Escherichia coli) (UniProt P77444); conditions: cited from earlier work; remark: listed apart in the source
# [5] = molecular target: SufBC2D (Escherichia coli) (UniProt P77522); assay: surface plasmon resonance; conditions: cited from earlier work
# [6] = molecular target: SufBC2D scaffold complex (His6-SufBCD) (E. coli) (UniProt P77522)
# [7] = molecular target: SufBC2D scaffold complex (His6-SufBCD) (E. coli) (UniProt P77522); assay: steady-state enzyme inhibition
# SufBC2D scaffold complex (His6-SufBCD) (E. coli), sequence (P77522 whole entry, chain 1 of 3): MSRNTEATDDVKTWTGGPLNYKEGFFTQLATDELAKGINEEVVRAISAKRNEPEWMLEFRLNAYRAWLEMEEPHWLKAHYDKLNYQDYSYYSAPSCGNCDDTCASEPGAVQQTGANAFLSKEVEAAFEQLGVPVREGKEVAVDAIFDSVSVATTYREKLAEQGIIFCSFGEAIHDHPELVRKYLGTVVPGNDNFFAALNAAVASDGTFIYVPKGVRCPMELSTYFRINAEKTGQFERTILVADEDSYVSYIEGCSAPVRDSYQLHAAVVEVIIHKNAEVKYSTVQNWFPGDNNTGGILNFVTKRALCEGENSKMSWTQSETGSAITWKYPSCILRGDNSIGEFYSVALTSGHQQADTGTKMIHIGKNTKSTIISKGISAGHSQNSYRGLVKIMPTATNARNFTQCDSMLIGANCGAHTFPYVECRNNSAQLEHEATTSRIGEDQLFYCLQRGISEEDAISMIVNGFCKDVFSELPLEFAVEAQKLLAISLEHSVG
# SufBC2D scaffold complex (His6-SufBCD) (E. coli), sequence (P77499 whole entry, chain 2 of 3, further chain): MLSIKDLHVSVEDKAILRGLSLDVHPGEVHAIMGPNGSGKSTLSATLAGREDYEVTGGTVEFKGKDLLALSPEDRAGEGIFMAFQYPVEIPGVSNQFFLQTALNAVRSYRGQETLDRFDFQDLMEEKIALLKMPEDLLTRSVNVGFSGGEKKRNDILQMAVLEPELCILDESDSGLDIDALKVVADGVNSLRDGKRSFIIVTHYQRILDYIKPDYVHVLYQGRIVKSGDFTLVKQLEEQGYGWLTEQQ
# SufBC2D scaffold complex (His6-SufBCD) (E. coli), sequence (P77689 whole entry, chain 3 of 3, further chain): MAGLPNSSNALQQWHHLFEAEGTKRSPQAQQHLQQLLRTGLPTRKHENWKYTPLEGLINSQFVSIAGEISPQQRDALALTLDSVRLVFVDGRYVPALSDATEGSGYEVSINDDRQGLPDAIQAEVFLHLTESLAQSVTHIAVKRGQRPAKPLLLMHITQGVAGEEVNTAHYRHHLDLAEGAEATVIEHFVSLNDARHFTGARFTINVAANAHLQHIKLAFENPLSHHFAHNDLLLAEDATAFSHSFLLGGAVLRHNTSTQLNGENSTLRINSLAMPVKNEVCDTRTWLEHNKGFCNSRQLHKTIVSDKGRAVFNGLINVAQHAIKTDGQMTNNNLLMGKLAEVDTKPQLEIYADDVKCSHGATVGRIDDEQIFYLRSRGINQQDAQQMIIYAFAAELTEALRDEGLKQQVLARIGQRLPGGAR
# SufS (Escherichia coli), sequence (P77444 whole entry): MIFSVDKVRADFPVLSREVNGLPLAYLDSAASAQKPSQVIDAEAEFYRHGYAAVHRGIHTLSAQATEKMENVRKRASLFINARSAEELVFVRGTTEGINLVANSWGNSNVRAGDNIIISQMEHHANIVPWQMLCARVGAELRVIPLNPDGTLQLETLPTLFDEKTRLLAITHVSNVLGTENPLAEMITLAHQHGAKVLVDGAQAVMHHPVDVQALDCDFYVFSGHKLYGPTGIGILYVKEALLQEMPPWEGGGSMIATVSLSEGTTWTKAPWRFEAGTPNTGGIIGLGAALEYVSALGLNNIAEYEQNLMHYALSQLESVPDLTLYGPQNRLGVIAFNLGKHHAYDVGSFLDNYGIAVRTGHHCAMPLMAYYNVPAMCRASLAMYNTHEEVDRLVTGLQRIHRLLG
# SufS (with SufE), sequence (P77444 whole entry, one chain of several): as the sequence (P77444 whole entry) above
# SufBC2D (Escherichia coli), sequence (P77522 whole entry, chain 1 of 3): as the sequence (P77522 whole entry, chain 1 of 3) above
# SufBC2D (Escherichia coli), sequence (P77499 whole entry, chain 2 of 3, further chain): as the sequence (P77499 whole entry, chain 2 of 3, further chain) above
# SufBC2D (Escherichia coli), sequence (P77689 whole entry, chain 3 of 3, further chain): as the sequence (P77689 whole entry, chain 3 of 3, further chain) above
molecule,measurement,setting,value
N[C@@H](CS)C(=O)O [L-cysteine],NDA-alanine fluorescence detection of L-alanine produced,[1],Cysteine desulfurase activity of SufS was measured by quantifying the amount of L-alanine produced
SufBC2D scaffold complex (His6-SufBCD) (from UniProt P77522 1-495; P77499 1-248; P77689 1-423),Kd,[2],1600 nM
SufE (from UniProt P76194),Kd,[3],5000 nM
same,Kd,[4],500 nM
same,Kd,[5],2800 nM
SufE (wildtype) (natural protein) MALLPDKEKLLRNFLRCANWEEKYLYIIELGQRLPELRDEDRSPQNSIQGCQSQVWIVMRQNAQGIIELQGDSDAAIVKGLIAVVFILYDQMTPQDIVNFDVRPWFEKMALTQHLTPSRSQGLEAMIRAIRAKAAALS,IC50 of inhibition of SufBC2D ATPase activity in the presence of 500 μM Mg2+-ATP,[6],1000 nM
same,Ki,[7],1800 nM
"Carbamidomethylated SufE (SufE-alk) (natural protein, C51 alkylated (carbamidomethylated with iodoacetamide)) MALLPDKEKLLRNFLRCANWEEKYLYIIELGQRLPELRDEDRSPQNSIQGCQSQVWIVMRQNAQGIIELQGDSDAAIVKGLIAVVFILYDQMTPQDIVNFDVRPWFEKMALTQHLTPSRSQGLEAMIRAIRAKAAALS",Ki,[7],2500 nM
